Data on 32 variants can be found in the RNAGym collection of RNA variant scans (doi:10.7554/elife.80360).

The chains are these.
B1: HDV Ribozyme (parent)
chain: GGCCGGCAUGGUCCCAGCCUCCUCGCUGGCGCCGGCUGGGCAACAUUCCGAGGGGACCGUCCCCUCGGUAAUGGCGAAUGGGACCCA

In this data set the parent is B1. Description: self-cleavage, relative activity (ratio to wild type); higher = more cleavage; co-transcriptional.
In the case of GGCCGGCAUGGUCCCAGCCUCCUCGCUGGCGCCGGCUGGGCAACAUUCCGAGGGGACCGUCCCCCCGGUAAUGGCGAAUGGGACCCC [U65C A87C], the self-cleavage worked out at 1.09.

On to GGCCGGCAUGGUCCCAGCCUCCUCGCUGGCGCCGGCUGGGCAACAUUCCGAGGGGAACGUCCCCUCGGUAAUCGCGAAUGGGACCCA [C57A G73C], for which the self-cleavage is 0.523.

For the variant GGCCGGCAUGGUCCCAGCCUCCUCGCUGGCGCCGGCUGGGCAACAUUCCGAGGGGGGCGUCCCCUCGGUAAUGGCGAAUGGGACCCA [A56G C57G], the self-cleavage was 0.8.

Consider GGCCGGCAUGGUCCCAGCCUCCUCGCGGGCGCCGGCUGGGCAACAUUCCGAGGGGACCGUCCCCUCGGCAAUGGCGAAUGGGACCCA [U27G U69C], for which the self-cleavage came out at 0.969.

As for GGCUGGCAUGGUCCCAGCCUCUUCGCUGGCGCCGGCUGGGCAACAUUCCGAGGGGACCGUCCCCUCGGUAAUGGCGAAUGGGACCCA [C4U C22U], the self-cleavage stood at 0.259.

Regarding GGCCGGCAUGGUCUCAGCCUCCUCGCUGGCGCCGGCUGGUCAACAUUCCGAGGGGACCGUCCCCUCGGUAAUGGCGAAUGGGACCCA [C14U G40U], the self-cleavage amounted to 0.724.

With GGCCGGCAUGGUCCCAGCCUCCUCGCUGGCGCCUGCUGGGCAACAUUCCGAGGGGACCGUCCCCUCGGUAAUGGCGUAUGGGACCCA [G34U A77U], the self-cleavage is 0.163.

In the case of GGCCGGCAUGGUCCCAGCCUCCUCGCUGGCGCCGGCUGGGCAACAUUCCGAGGGGACGGUCCACUCGGUAAUGGCGAAUGGGACCCA [C58G C63A], the self-cleavage was determined as 0.813.

Turning to GGCCGGCAUGGUCCCAGCCUCCUCGCUGGCGCCGGCUGGGCAACAUUCCGAGGGGACCGUACCCUCGGUCAUGGCGAAUGGGACCCA [C61A A70C], the self-cleavage was found to be 1.01.

Turning to GGCCGGCAUGGUCCCAGCCUCCUCGCAUGCGCCGGCUGGGCAACAUUCCGAGGGGACCGUCCCCUCGGUAAUGGCGAAUGGGACCCA [U27A G28U], the self-cleavage came to 0.158.

Regarding GGCCGGCGUGGUCCCAGCCUCCUCGCUGGCGCCGGCUGGGUAACAUUCCGAGGGGACCGUCCCCUCGGUAAUGGCGAAUGGGACCCA [A8G C41U], the self-cleavage came to 0.917.

Regarding GGCCGCCAUGGUCCCAGCCUCCUCGCUGGCGCCGGAUGGGCAACAUUCCGAGGGGACCGUCCCCUCGGUAAUGGCGAAUGGGACCCA [G6C C36A], the self-cleavage turned out to be 0.095.

GGCCGGCAUAGUCCCAGCCUCCUCGCUGGCGCCGGCUGGGCAACAUUCCGAGGGGACCGUCCCCUCGGUAAUGGCGAAUGGGACCCC [G10A A87C]: the self-cleavage was determined as 0.764.

With GGCCGGCAUUGUCCCAGCCUCCUCGCUGGCGCCGGCUGGGCAACAUUCCGAGGGGAGCGUCCCCUCGGUAAUGGCGAAUGGGACCCA [G10U C57G], the self-cleavage was 0.587.

GGCCGGCAUGGUGCCAGCGUCCUCGCUGGCGCCGGCUGGGCAACAUUCCGAGGGGACCGUCCCCUCGGUAAUGGCGAAUGGGACCCA [C13G C19G]: the self-cleavage is 0.0791.

Regarding GGCCGGCAUGGUCCCAGCAUCCUCGCUGGCGCCGGCUGGGCAACAUUCCGAGGGGAGCGUCCCCUCGGUAAUGGCGAAUGGGACCCA [C19A C57G], the self-cleavage is 0.119.

In the case of GUCCGGCAUGGUCACAGCCUCCUCGCUGGCGCCGGCUGGGCAACAUUCCGAGGGGACCGUCCCCUCGGUAAUGGCGAAUGGGACCCA [G2U C14A], the self-cleavage stood at 0.12.

As for GGCCGGCAUGGUCCCAGCCUCCUCGCUGGCGCCGGCUUGGCAACAUUCCGAGGGGACCGUGCCCUCGGUAAUGGCGAAUGGGACCCA [G38U C61G], the self-cleavage was 0.086.

Take GGCCGGCAUGGUCCCAGCCUCCUCGCUGGCGCUGGCUGGGCAACAUUCCGGGGGGACCGUCCCCUCGGUAAUGGCGAAUGGGACCCA [C33U A51G]: the self-cleavage was 1.01.

As to GGCCGGCAUGGUCCCAGCCUCCUCGCUGGCGCCGGCUGGGUAACAUUCCGAGAGGACCGUCCCCUCGGUAAUGGCGAAUGGGACCCA [C41U G53A], the self-cleavage was 1.12.

On to GGCCGGCAUGGUCCCAGCCUCCUCGCUGGCGGCGGCUGGGCAACAUUCCGAGGGGACCGUCCCCUCGGUAAUGGCGAAUGGGAUCCA [C32G C84U], for which the self-cleavage was found to be 0.0354.

Turning to GCCCGGCAUGGUCCCAGCCUCCUCGCUGGCACCGGCUGGGCAACAUUCCGAGGGGACCGUCCCCUCGGUAAUGGCGAAUGGGACCCA [G2C G31A], the self-cleavage stood at 0.0382.

GGCCGGCAUGGUCCCAGCCUCCUCGCUGGCGCCGGCUGGCCAACAUUCCGAGGGGAACGUCCCCUCGGUAAUGGCGAAUGGGACCCA [G40C C57A]: the self-cleavage is 0.295.

Consider GGCCGGCAUGGUCCCAGCCUCCUCGCUGGCGCCGGCUGGGCAACAUUCCGAGGGGGCCGUGCCCUCGGUAAUGGCGAAUGGGACCCA [A56G C61G], for which the self-cleavage was determined as 1.12.

GGCCGGCAUGGUCGCAGCCUCCUCGUUGGCGCCGGCUGGGCAACAUUCCGAGGGGACCGUCCCCUCGGUAAUGGCGAAUGGGACCCA [C14G C26U]: the self-cleavage was 1.18.

Turning to GGCCGGCAUGGUCCCAGCCUCCUCGCUGACGCCGGCUGGGCAACAUUCCGAGGGGUCCGUCCCCUCGGUAAUGGCGAAUGGGACCCA [G29A A56U], the self-cleavage was found to be 0.111.

In the case of GGCCGGCAUGGUCCCAGCCUCCUCGCUGGCGCCGGCUGGGCAACUUUCCGAGGGGACCGUCCCCGCGGUAAUGGCGAAUGGGACCCA [A45U U65G], the self-cleavage was found to be 0.615.

As to GGCCGGCAUGGUCCAAGCCUCCUCGCUGGCGCCGGCUGGGCAACAUUCCGAGGAGACCGUCCCCUCGGUAAUGGCGAAUGGGACCCA [C15A G54A], the self-cleavage stood at 0.504.

Take GGCCGGCAUGGUCCCAGCCUCCUCGCUGGCGCAGGCUGGGCAACAUUCGGAGGGGACCGUCCCCUCGGUAAUGGCGAAUGGGACCCA [C33A C49G]: the self-cleavage was 0.166.

As to GGCCGGCAUGGUCCCUGCCUCCUCGCUGGCGCCGGCUGGGCAACAUUCCGAGGGGACCGUCCCCUCGGUAAUGGCGAAUGGGUCCCA [A16U A83U], the self-cleavage was determined as 0.584.

For GGCCGGCAUGGUCCCAGCCUCCUCGCUGGCGCCGGCUGGGCGACAUUGCGAGGGGACCGUCCCCUCGGUAAUGGCGAAUGGGACCCA [A42G C48G], the self-cleavage was 0.791.

Consider GGCCGGCAUGGUCCCAGCCUCCUCGCUGGCGCCGGCUGGGCAACAUUCCGAGGGGACCGUCCCCUCGGUAAUGGCGAAGGGGCCCCA [U79G A83C], for which the self-cleavage was found to be 0.204.
